According to patent publication US20140302075A1:

Biological target: human TLR4 receptor (expressed on HEK-Blue TLR4 reporter cells) (human) (UniProt O00206)
Assay: cell-based or functional assay

UniProt O00206, sequence (O00206 24-839): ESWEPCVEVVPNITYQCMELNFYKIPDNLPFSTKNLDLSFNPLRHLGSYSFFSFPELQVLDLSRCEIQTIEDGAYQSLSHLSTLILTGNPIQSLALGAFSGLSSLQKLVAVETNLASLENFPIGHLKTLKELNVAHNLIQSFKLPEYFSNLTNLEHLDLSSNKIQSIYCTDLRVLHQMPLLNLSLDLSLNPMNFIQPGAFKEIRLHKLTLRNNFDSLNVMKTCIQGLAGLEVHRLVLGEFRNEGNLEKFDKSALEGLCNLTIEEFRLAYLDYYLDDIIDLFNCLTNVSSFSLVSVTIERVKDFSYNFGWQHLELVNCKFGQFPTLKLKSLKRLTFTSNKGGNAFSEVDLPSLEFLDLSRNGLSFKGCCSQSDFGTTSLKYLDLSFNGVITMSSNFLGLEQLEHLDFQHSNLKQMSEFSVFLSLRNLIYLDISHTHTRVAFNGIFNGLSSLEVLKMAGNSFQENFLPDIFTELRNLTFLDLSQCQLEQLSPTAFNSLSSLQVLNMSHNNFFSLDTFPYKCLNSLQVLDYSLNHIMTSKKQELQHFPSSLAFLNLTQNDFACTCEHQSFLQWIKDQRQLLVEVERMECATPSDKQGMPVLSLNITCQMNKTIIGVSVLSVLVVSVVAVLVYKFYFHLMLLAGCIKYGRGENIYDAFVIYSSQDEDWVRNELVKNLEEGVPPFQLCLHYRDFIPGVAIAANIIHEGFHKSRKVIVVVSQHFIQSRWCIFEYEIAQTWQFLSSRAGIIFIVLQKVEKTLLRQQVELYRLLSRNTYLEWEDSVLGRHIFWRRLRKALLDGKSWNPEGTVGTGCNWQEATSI

Fold increase in activity over AspRS1^N1 (TLR4 Activity; SEAP reporter, HEK-Blue TLR4 cells): 3.6 fold
Substance: AspRS1^N1 (C76S) (amino acids 1-154 of human aspartyl-tRNA synthetase with Cys76 to Ser, C-terminal V5His tag) (ligand)
